Assay results taken from patent US20020037516.
Like-named read-outs stand apart in the source and are kept apart here.

Columns and labels:
[1] = molecular target: TSR thiostrepton resistance methyltransferase (tsr) (Streptomyces azureus) (UniProt P18644); conditions: Km of methylation; 5 mM MgCl2, 25 mM NH4Cl, pH 7.5, 25 C
Ribosomal protein L11 = assay: inhibition; conditions: affinity from inhibition of TSR methylation; 5 mM MgCl2, 25 mM NH4Cl, pH 7.5, 25 C
[2] = system: ErmE erythromycin resistance methyltransferase; conditions: Km of methylation; 10 mM MgCl2, 100 mM NH4Cl, pH 7.8, 30 min 25 C
[3] = molecular target: TSR thiostrepton resistance methyltransferase (tsr) (Streptomyces azureus) (UniProt P18644); conditions: Km +/-3 nM, 15 experiments; 5 mM MgCl2, 25 C

E. coli mGAR 60-mer
activity [1]: 50 nM
Ki (Ribosomal protein L11): 84 nM

23S rRNA (Erm substrate)
activity [2]: 23 nM

GAR 58-mer RNA
activity [3]: 47 nM
